Results taken from the nanobody polyreactivity screen of Harvey et al. (2022).

Test: yeast display, Sf9 membrane polyspecificity reagent, FACS + sequencing; frameworks hold sequencing errors
Method in brief: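 Polyreactivity labels are assigned by the sorting gate from which each nanobody was recovered. The gates were low and high (top ~1%), set on anti-HA fluorescence for expression and streptavidin fluorescence for reagent binding. Before sorting, galactose-induced (36–48 hours) yeast display cells were stained for 1 hour at 4 °C with 10% biotinylated, detergent-solubilized Sf9 membrane reagent.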
In the case of “QVQLVESGGGLVHAGGSLRLSCAASGRIFRSYAMGWYRQAPGKERELVAAITSRGGSTYYADYVKGRFTISRDNAKNTVYLQMNILKTEDTAVYYCAADSFRLGVAAWTRYNYWGQGTQVTVSS”, the “polyreactivity (PSR sort gate)” value is reported as “high polyreactivity”. In the case of “QVQLVESGGGLVHAGGSLRLSCAASGRIFVRYAMGWYRQAPGKERELVAAINWRGSSTYYADSVKGRFTISRDNAKNTVYLQMNSLKPEDTAVYYCNTAQRYRVYRYDYWGQGTQVTVSS”, the “polyreactivity (PSR sort gate)” value is reported as “high polyreactivity”. With “QVQLVESGGGLVHAGGSLRLSCAASGRIFYVYAMGWYRQAPGKEREFVASISWSGGSTYYADSVKGRFTISRDNAKNTVYLQMNSLKPEDTAVYYCAARVVRYGYKYYYWGQCTQVTVSS” the “polyreactivity (PSR sort gate)” value was “low polyreactivity”. In the case of “QVQLVESGGGLVHAGGSLRLSCAASGRTFGKYAMGWYRQAPGKERELVAAISSGGTTYYADSVKGRFTISRDNAKNTVYLQMNSLKPEDTAVYYCAADPRYPYNYWGQGTQVTVSS”, the “polyreactivity (PSR sort gate)” value is reported as “low polyreactivity”. For “QVQLVESGGGLVHAGGSLRLSCAASGRTFGWYAMGWYIQAPGKERELVASITHRGGRTYYADSVKGRFTISRDNAKHTVYLQMNSLNPEDTAVYYCAAKTSTGMGYWGQCTQVTVSS”, the “polyreactivity (PSR sort gate)” value was “high polyreactivity”. For “QVQLVESGGGLVHAGGSLRLSCAASGRTFRLYVMGWYRQAPGKERELVASITRGTGTDYADSVKGRFRISRDNAKNTVYLQMNSLKPEDTAVYYCNVKYGQPIYGEFDYWGQGTQVTVSS”, the “polyreactivity (PSR sort gate)” value was “low polyreactivity”. In the case of “QVQLVESGGGLVHAGGSLRLSCAASGRTFRNNAMVWYRQAPGKEREWVAAITSGGSTNYADSVKGRFTISRDNAKNPVYLQMISLKPEDTGVYYCAKDFWYVTGGWSSGMDYWGQGTQVTVSS”, the “polyreactivity (PSR sort gate)” value is reported as “low polyreactivity”. With “QVQLVESGGGLVHAGGSLRLSCAASGRTFTLYAMGWYRQAPGKERELVAAITRTGRTTYADSVKGRFTISRDNAKNTVYLQMNSLKPEDTAVYYCAAEVEYTSASIVYYEYEYWGQGTQVTVSS” the “polyreactivity (PSR sort gate)” value was “high polyreactivity”. In the case of “QVQLVESGGGLVHAGGSLRLSCAASGRTFVYYAMGWNTQAPGKERELVAAISAGGGSTYYADSEKGRFTISRDNAKITVYFQMNSLNPEDTAVYYCAADGSPEIRDNYWGQGTQVTVSS”, the “polyreactivity (PSR sort gate)” value is reported as “high polyreactivity”. In the case of “QVQLVESGGGLVHAGGSLRLSCAASGRTFYIYAMGWYRQAPGKERELVAAISKSGGRTYYADSVKGRITISRDNAKNTVYLQMNSLKPEDTAVYYCNKLVGDDTALYDYWGQGTQVTVSS”, the “polyreactivity (PSR sort gate)” value is reported as “high polyreactivity”. With “QVQLVESGGGLVHAGGSLRLSCAASGRTFYIYAMGWYRQAPGKERELVADITSGGSTYYADSVKGRFTISRDNAKNTVYLQMNSLKPEDTAVYYCAADWVTFYSYTEYDYWGQGTQVTVSS” the “polyreactivity (PSR sort gate)” value was “low polyreactivity”. In the case of “QVQLVESGGGLVHAGGSLRLSCAASGSIFDWNAMGWYTQAPGKERELVATISWDGGSTYYADSVKGRFTISRDNAKNTVYLQMNSLKPEDTAVYYCATVFTGKPAFYARTKYDYWGQRTQVTVSS”, the “polyreactivity (PSR sort gate)” value is reported as “low polyreactivity”. For “QVQLVESGGGLVHAGGSLRLSCAASGSIFEFYAMGWYRQAPGKERELVAAITWDDGSTYYADSVKGRFTISRDNAKNTVYLQMNSLKPEDTAVYYCAASASVRGGGADQYVIAFDYWGQGTQVTVSS”, the “polyreactivity (PSR sort gate)” value was “low polyreactivity”. With “QVQLVESGGGLVHAGGSLRLSCAASGSIFGRNAMGWYRQPPGKERELVARISSRGGSTYYADSVKGRFTISRDNAKNTVYLQMNSLKPEDTAVYYCNRDRTSQTNDYWGQGNQVTVSS” the “polyreactivity (PSR sort gate)” value was “high polyreactivity”. For “QVQLVESGGGLVHAGGSLRLSCAASGSIFKVYAMGWYRQAPGKERELVASITSGGRTYADSVKGRFTISRDNAKNTVYLQRNSLKPEDTAVYYCSARSRSKFYYWGQGTQVTVSS”, the “polyreactivity (PSR sort gate)” value was “high polyreactivity”. For “QVQLVESGGGLVHAGGSLRLSCAASGSIFPVNAMGWYRQAPGKERELVAAITSSGGTTYYADSVKGRFTISRDYAKITVYLLMNSLKPVDTAVYYCAADVDVSYWRMEYWGQGTQVTVSS”, the “polyreactivity (PSR sort gate)” value was “high polyreactivity”. In the case of “QVQLVESGGGLVHAGGSLRLSCAASGSIFSWYDMGWYRQAPGKERELVADISSGGSTNYADSVKGRFTISRDNAKNTVYLQMNSMKPEDTAVYYCNARLGYLYDYWGQGTQVTVSS”, the “polyreactivity (PSR sort gate)” value is reported as “low polyreactivity”. With “QVQLVESGGGLVHAGGSLRLSCAASGSIFVGYAMGWYRQAPGKERELVARISRSGTSTYYADSVKGRFTISRDNAKNTVYLQMNSLKPEDTAVYYCNATVSRYSGYQRGHYWRYDYWGQGTQVTVSS” the “polyreactivity (PSR sort gate)” value was “high polyreactivity”. With “QVQLVESGGGLVHAGGSLRLSCAASGSIFYEYAMGWYRQAPGKERELVASINRGGGSTYYADSVKGRFTISRDNAKNTVYLQMNSLKPEDTAVYYCAAQWKYRQSYLDYYWGQGTQVNVSS” the “polyreactivity (PSR sort gate)” value was “low polyreactivity”. For “QVQLVESGGGLVHAGGSLRLSCAASGSIIEAYAMGWYRQAPGKEMELVAVISTGGGSTSYADSVKGRFTISRDNAKNTVYLQMNSLKPEDTAVYYCAAEYRWSYFRTYYSWGQGTQVTVSS”, the “polyreactivity (PSR sort gate)” value was “low polyreactivity”. With “QVQLVESGGGLVHAGGSLRLSCAASGSIYVDNAMGWYRQAPGTERELVAVISWIGSSTYYADSVKGRFTISRDNAKYTVYFQMNSLNPEDTAVFYCAAAPSRTLLRQSKYYFWGQGTQVNVSS” the “polyreactivity (PSR sort gate)” value was “low polyreactivity”. With “QVQLVESGGGLVHAGGSLRLSCAASGSIYYGNAMGWYIQAPGKERELVARISWSGSNTRYADSVKGRFTISRDNSKITVYLQMNSLKPEDTAVYYCNRGSYQTSFFRYDYWGQGTQVTVSS” the “polyreactivity (PSR sort gate)” value was “high polyreactivity”. For “QVQLVESGGGLVHAGGSLRLSCAASGSTFGFYARGWYRQAPGKERELVAAITTGGSTNYADSVKGRFTISRVNAKNTVYLQMYSLKPEDSAVYYCHADVYWNPYYDYDYWGQGTLVTVSS”, the “polyreactivity (PSR sort gate)” value was “high polyreactivity”. With “QVQLVESGGGLVHAGGSLRLSCAASGSTFHTYDMGWYRKAPWKERELVAAITSRDSTHYADSVKGCFTISRDNAKNTVYLQMNSLKPEDTAVYYCAASAPYLYYRSAYYYWGQGTQVTVSS” the “polyreactivity (PSR sort gate)” value was “low polyreactivity”. For “QVQLVESGGGLVHAGGSLRLSCAASGSTFPSYAMGWYRQAPGKERELVAAINSGGGTYYADSVKGRFTISRDNAKNTVYLQRNSLKPEDTAVYYCATSRYDYTKTEGGYWGQGNQVTVSS”, the “polyreactivity (PSR sort gate)” value was “low polyreactivity”. With “QVQLVESGGGLVHAGGSLRLSCAASGSTFRLYSMGWYRQAPGKERELVAAISSNGVRTYYADSVKGRFTISRDNAKNTVYLQMNSLKPEDTAVYYCAARVYPAYPRGYDYWGQGTQVTVSS” the “polyreactivity (PSR sort gate)” value was “high polyreactivity”. For “QVQLVESGGGLVHAGGSLRLSCAASGSTFSWYVMGWYRQAPGKERELVAAISYRGGRTYYADSVKGRFTISRDNAKNTVYLHMNSLKTEDTAVYYCAARGVVDAGRTNRPYDYWGQGTQVTVSS”, the “polyreactivity (PSR sort gate)” value was “low polyreactivity”. In the case of “QVQLVESGGGLVHAGGSLRLSCAASGSTSVYYAMGWYRQTPGKERELVAAITWDDGSTSYADSVKGRFTISRDNAKNTVYLQMNSLNPEDTAVYYCAKDYEYLGAFNYWGQGTQVTVSS”, the “polyreactivity (PSR sort gate)” value is reported as “low polyreactivity”. With “QVQLVESGGGLVHAGGSLRLSCAASRYTFVNYAMGWYSQAPGKERELVAAITSRGSSTYYADSVKGRFTLSRDNAKNTVYLQMNSLNPEDTAVYYCYVHVRNHDYWGEGTQVTVSS” the “polyreactivity (PSR sort gate)” value was “high polyreactivity”. In the case of “QVQLVESGGGLVHAGGSLRLSCAPSGSNFCFNAMGWYRQAPGKERELVAAIPSRGGSTYYADSVKGRFTISRDNAKNTVYLQMNSLKPEDTAVYYCNADHRDTFIWVGLPHMDYWGQGTQVTVSS”, the “polyreactivity (PSR sort gate)” value is reported as “low polyreactivity”. With “QVQLVESGGGLVHAGGSLRLSCASSGFTFWKYAIGGYRQAPGKERELVATISLGGARTYYADSVKGRFTISLDNAKNTVYLQMNSLKPEDTAVYYCNARCRWTANFDYWVQGTQVTVSS” the “polyreactivity (PSR sort gate)” value was “high polyreactivity”. For “QVQLVESGGGLVHAGGSLRLSCDASGFTFAGYSMGWYRQAPGKERELVAGIRSSGARTYYADSVKGRFTISRDNAKTTVYLQKNILKPEHTAVYYCAKTDGFYSGYGYWGQGTQVTVSS”, the “polyreactivity (PSR sort gate)” value was “low polyreactivity”. With “QVQLVESGGGLVHAGGSLRLSCDASGITFWAYAMGWYRQAPGKEREFVAAITVSTGSTFYADSVKGRFTISRDNAKNTVYLQMNSLKREDTALYYCAAPQDGTWWLPAGGYWGQGTQVTVSS” the “polyreactivity (PSR sort gate)” value was “low polyreactivity”. For “QVQLVESGGGLVHAGGSLRLSCDASGLTFAYYAMGWYRQAPGKERELVAAISWNGGRTYYADSVKGRFTISRDNAKNTVYLQMNSLKPEDTAVYYCAAQVTSSFYWGQGTQVTVSS”, the “polyreactivity (PSR sort gate)” value was “high polyreactivity”. In the case of “QVQLVESGGGLVHAGGSLRLSCSASGFTFYKYAMGWYRQAPGKERELVAAFSYSGGSTYYADSVKGRFTISRDNAKNTVYLQMNSLKPEDTAVYYCAARVRGTGYNSWGQGTLVTVSS”, the “polyreactivity (PSR sort gate)” value is reported as “high polyreactivity”. For “QVQLVESGGGLVHAGGSLRLSSAASGGIFKYNPMGWYRQAPGTERELVARISFGGSRTYYADSVKGRFTISRDNAKNTCYVQMNSLKPADTAVYYCARRVTGTLYYTGYDYWGQGTQVTVSS”, the “polyreactivity (PSR sort gate)” value was “high polyreactivity”. In the case of “QVQLVESGGGLVHAGGSLRLSSAASGLIFGWYAMGWYRPAPGKEREFVASIRDGGGSTYYADSVNGRFTISRDNANNTVFLEMHSLKPEDSAVYYFAADRYPWHLQYVEYDSDFWGQGTQVTVSS”, the “polyreactivity (PSR sort gate)” value is reported as “low polyreactivity”. In the case of “QVQLVESGGGLVHAGGSLRVSCAASGFTFYLYTMGWYRQAPGTERELVAAINYSGGRTYYADSVKGRFTISRDYAKNSVYLQMNSLKPEDTAVYYCYPRVKNLQAYDYWGQGTQVTVSS”, the “polyreactivity (PSR sort gate)” value is reported as “high polyreactivity”. For “QVQLVESGGGLVHAGGSLSLSCAAYYAMGWYRQAPGKERELVAAIDDCTSTNYADSVKGRFTISRDNAKNTVYLQMNSLKPEDTAVDYCNKLSEVTYYGSKFDYWGQGTQVTVSS”, the “polyreactivity (PSR sort gate)” value was “low polyreactivity”. For “QVQLVESGGGLVHAGGTLSLSCADSGFTYVLYGMGWYRQEPGKESELVASITWNGVGTYYADSVKGRFTIARDNAKNTVYLHMNSLKPEDTSVYFCHADDPDLASYLGVDYWGQGSQVTVSS”, the “polyreactivity (PSR sort gate)” value was “high polyreactivity”. In the case of “QVQLVESGGGLVKAAGSLRLSSAASGSIFSYNAMGWNRQAPGKERELVAAITFTAGNTYYADSVKGRFTISRDNAKNTVYLQMNILKPEDTAVYYCAATIQSYREDDNWGQGTQVTVSS”, the “polyreactivity (PSR sort gate)” value is reported as “low polyreactivity”. In the case of “QVQLVESGGGLVKAGGSLRLISAATGSIFTFYAMGWYRQAPGKERELVATINRIGGNTYYADSVKGRFTISRDNAKNTVYLQMNSLKPEDTAVYYCAAKPTDRGYGYGSWGQGTQVSVSS”, the “polyreactivity (PSR sort gate)” value is reported as “low polyreactivity”. For “QVQLVESGGGLVKAGGSLRLSCAASFFFYDMGWYRQAPGKERELVAAISWRGDTTYYADSVKGRFTISRDNAKNTVYLQMNSLKPEDTAVYYCAADYYGNVVYPSYYWGQGTQVTVSS”, the “polyreactivity (PSR sort gate)” value was “high polyreactivity”.
